{"source": "patent US20130270124", "about": "“BIOSENSOR ELECTRODE FOR HER2 DETECTION, A METHOD FOR PRODUCING IT, A METHOD FOR REGENERATING IT” (RESEARCH & BUSINESS FOUNDATION SUNGKYUNKWAN UNIVERSITY, published 2013)", "binders": {"B1": {"name": "HER2 NH2-aptamer (ssDNA)", "DNA": "CTTCTGCCCGCCTCCTTCCTGGGGCCTGGATACGGATTGGTAAGGATTAGTAGGGGGCATAGCTGGAGACGAGATAGGCGGACACT", "modifications": "5'-amino modifier C6"}}, "key": {"[1]": {"biological_target": "Bovine serum albumin (BSA) (Bos taurus, UniProt P02769 P02769:25-607)", "sequence (P02769 25-607, one chain of several)": "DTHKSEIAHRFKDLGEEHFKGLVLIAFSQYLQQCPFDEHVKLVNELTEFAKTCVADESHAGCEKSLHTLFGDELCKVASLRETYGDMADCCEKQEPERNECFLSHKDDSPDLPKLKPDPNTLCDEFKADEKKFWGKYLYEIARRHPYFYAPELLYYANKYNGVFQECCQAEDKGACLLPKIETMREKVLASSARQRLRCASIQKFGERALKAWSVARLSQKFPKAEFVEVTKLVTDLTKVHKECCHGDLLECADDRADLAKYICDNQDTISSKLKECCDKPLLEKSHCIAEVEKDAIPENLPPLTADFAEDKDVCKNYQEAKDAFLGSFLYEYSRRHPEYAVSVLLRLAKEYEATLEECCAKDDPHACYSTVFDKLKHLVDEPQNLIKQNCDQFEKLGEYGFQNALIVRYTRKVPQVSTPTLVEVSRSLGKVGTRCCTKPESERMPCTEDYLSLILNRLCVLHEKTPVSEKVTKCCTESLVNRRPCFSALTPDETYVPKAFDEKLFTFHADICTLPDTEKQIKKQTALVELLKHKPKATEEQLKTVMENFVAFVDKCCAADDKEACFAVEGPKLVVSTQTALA", "assay": "impedance; 20 ug/ml BSA in PBS, 30 min, Ret unchanged", "details": "tags: Sigma-Aldrich; label: 5'-amine, amide-coupled to MPA on gold electrode", "experimental": "(§1) A conventional three-electrode cell was used for performing electrochemical impedance spectroscopy (EIS). Ag/AgCl and a platinum (Pt) plate were respectively used as a reference electrode and an opposite electrode. In every modification and detection stage, an operating electrode was detected by EIS in a 2 mM Fe(CN)6^{3-/4-}(1:1)/PBS solution. An amplitude-sine wave of about 10 mV was applied in a frequency range of about 0.1 Hz to 100 kHz.\nEIS data was measured to investigate specificities of the aptamer with respect to other proteins existing blood, such as BSA and IgG. The EIS data of the aptamer-attached electrode was measured (block line), and then the aptamer-attached electrode was immersed in 20 μg/ml concentrations of BSA solution and IgG solution each for 30 minutes. […] Then, when the aptamer-attached electrode was immersed in a solution in which 30 ng/ml HER2 was added to a 20 μg/ml BSA/IgG solution for 30 minutes, the Rₑₜ value increased."}, "HER2 (ErbB2)": {"biological_target": "HER2 (ErbB2) (UniProt P04626 P04626:23-652)", "assay": "electrochemical impedance on Au/MPA/aptamer electrode; dRet linear 5-50 ng/ml (y=18.97x+160.2, R2=0.99882), saturates 50-500 ng/ml; PBS, 30 min", "details": "tags: R&D Systems; label: 5'-amine, amide-coupled to MPA on gold electrode", "experimental": "as §1\nAfter immobilization of the NH₂-ssDNA, the modified gold electrode was incubated in a series of HER2/PBS solutions of different concentrations for 30 minutes each, and then washed with DI water. A series of HER2/PBS solutions of 5 ng/ml to 500 ng/ml concentrations were fabricated in order to confirm a range of soluble concentration.\nAfter the aptamer (NH₂-ssDNA) was immobilized, the modified gold electrode was incubated in a series of HER2/PBS solutions of a range 5.0 to 50 ngmL⁻¹. The modified gold electrode was detected by EIS after each incubation. The difference of electron-transfer resistance ΔRₑₜ between the aptamer-modified gold electrode and the HER2-incubated gold electrode was obtained from a signal formed by a reaction between the immobilized aptamer and the HER2."}}, "data": [{"binder": "B1", "values": [{"measurement": "binding result", "setting": "[1]", "result": "no binding"}, {"measurement": "binding result", "setting": "HER2 (ErbB2)", "result": "binds"}]}]}
